{
  "source": "the DeepSol protein solubility set",
  "data": [
    {"assay": "soluble on expression in E. coli; label from the status in PepcDB or PDB records", "values": [
      {"sequence": "MISGPFLHFDPTVPLQTVMIGHPATSPLSLPSSSSSPTVADPSNIHCRVCERRYDGSQHFGIDICRACAAFFRRSVAVKKTFVCRRGTNKCELNTVSRKTTCQKCRWMRCLLVGLNVDAVVGRRSPDHVKTTSRDESVKKEDEESDTGSEGKSCEDMDVSHPIEQFQQQISFSVHRPIPTIGNPNIYTTRASLINKVLINYNEFTKSRLDVELSLKHMQQDSKVFGSTGIPIVPATREIISEIYQKQFGLLHIFLKNTFDEYAECDVQEQKRICAMFYPVLWEIESCYWTYRNMPVQPEYETLMMCTQTTYIDSKNVRYWLGNTTGLNESDIQAVEARLENLLTKARNLVLEPMHKLIIKEFEFITLLALNIWAPRNHRGCVSEDRAEQVRDALFDDLHYLYCDGLKIDKYSSRMGEMMCLHTEVQNADMSSTIKNILFSDLNAYLYSI", "soluble on expression in E. coli": "not soluble"},
      {"sequence": "FLRDAPKHLNPDGEIRLIISDLAEHLHLRPSDFLDKAFAQAGLRVADMMKTKPKHKKAANPSDPLAFARTRETTFLYRLKKA", "soluble on expression in E. coli": "not soluble"},
      {"sequence": "MSLADEMGYVPDRRAQKLRQASSRLLGVVFELQQPFHGDLVEQIYAAATRRGYDVMLSAVAPSRAEKVAVQALMRERCEAAILLGTRFDTDELGALADRVPALVVARASGLPGVGAVRGDDVAGITLAVDHLTELGHRNIAHIDGADAPGGADRRAGFLAAMDRHGLSASATVVTGGTTETEGAEGMHTLLEMPTPPTAVVAFNDRCATGVLDLLVRSGRDVPADISVVGYDDSRLARIPHVQMTTISQDATHMAEAAVDGALAQISGDKAVDLVLAPHLVRRATTGPVAHREGHHHHHH", "soluble on expression in E. coli": "soluble"},
      {"sequence": "MGSDKIHHHHHHMTVQSSDVIAPPAPRTLPDTGLSLVMLRDILLKTMFRMNLELVSQIAPVICLPAPLAQELVDLARSQRLVEATGTLHATSGNEMGYQLTDQGKARALDALSQSEYYGAMPVPLDRYRLQVERQSVRHIKLTRAQLTAAMGHLILPDELLDHLGPAVTSGRSILMYGPPGNGKSSISNGIRDALGDRIYVPRALEYSGQVITVYDPIVHRSAESAVDDPTSLRRTSNRFDNRYVWCERPTVITGGELTLDMLDLTYNPVARTYQAPLQLKATGGIFIVDDLGRQAEPPQKLVNRWIVPLEENRDILALQSGEKFTVPFDTLVIFSTNFHPNEIFDGAALRRIFFKIKVDGPSQENFLKIFAMVAKKRKMPLDETALVHLMKAKFPTIDNRYANYMPVYLIDQMISVCDFEGLPYQMTPALIDRAWSNMFVRDEVIAK", "soluble on expression in E. coli": "not soluble"},
      {"sequence": "MSLYDVTEWKHVFKLDPNKDLPDEQLEILCESGTDAVIIGGSDGVTEDNVLRMMSKVRRFLVPCVLEVSAIEAIVPGFDLYFIPSVLNSKNADWIVGMHQKAMKEYGELMSMEEIVAEGYCIANPDCKAAALTEADADLNMDDIVAYARVSELLQLPIFYLEYSGVLGDIEAVKKTKAVLETSTLFYGGGIKDAETAKQYAEHADVIVVGNAVYEDFDRALKTVAAVKGEEGGSHHHHHH", "soluble on expression in E. coli": "soluble"},
      {"sequence": "MKEEKRSSTGFLVKQRAFLKLYMITMTEQERLYGLKLLEVLRSEFKEIGFKPNHTEVYRSLHELLDDGILKQIKVKKEGAKLQEVVLYQFKDYEAAKLYKKQLKVELDRSKKLIEKALSDNF", "soluble on expression in E. coli": "soluble"},
      {"sequence": "MSKVPVVGIVAALLPEMGIGFQGNLPWRLAKEMKYFREVTTLTNDNSKQNVVIMGRKTWESIPQKFRPLPKRINVVVSRSFDGELRKVEDGIYHSNSLRNCLTALQSSLANENKIERIYIIGGGEIYRQSMDLADHWLITKIMPLPETTIPQMDTFLQKQELEQRFYDNSDKLVDFLPSSIQLEGRLTSQEWNGELVKGLPVQEKGYQFYFTLYTKKLEHHHHHHHH", "soluble on expression in E. coli": "soluble"},
      {"sequence": "MGQEYYFCRCGRSKKQPYCDGSHSGTGMKPMSFTAEKDEDAYLCQCKHTANAPFCDGTLEHHHHHH", "soluble on expression in E. coli": "not soluble"},
      {"sequence": "MGSDKIHHHHHHMENYTHWFYLESYTFLFYSKNQYVIYNTLNSTYIDCSLYGKTINTVLSILHNTNKTYCVGIYEYQLRDSQFTEFIKKIRNTFSGDIIKNIRGIPPFISKPILRILHHPNNPKTKEYNLLGENALFHLHEVTFYLENQGFDLNPMYKDCYKQFLYPTYTEKQKLSHAKYLEIIEQLSICQIDKINIIPATIEKKELFSYLLSLSRQYSIKTQIILPYKKYNKEDLKQLLTNPQFSIMIMVHLPVDYEELNSYINLFNEYNITWSLIASNKNDVIFLSKNNLGKFTNVDYIPWYTGDNMDFFKEYIYNDFKDIIEQKNTKQHIFRKQILNDNLFGKLTIFPTGEVYSNVNFPTIGNIQDQKLSEIVYSEIENYFKPWFFTRDYVSCKNCVNKYLCPSISNYEIVANEYNMCYLNQ", "soluble on expression in E. coli": "not soluble"},
      {"sequence": "MTAYGFIIPVFNHPHYLDQLVETLSRYQLPMILVNDGSNEECSTKLRVLDQSYTQVHLVEHAYNQGKGQAVITGLHYADQLGLSHALQIDCDGQHQWADVEQFLQLSQQYPEKVIIGQPIFDASIPKKRLYGRYLTHVWVWINSLSFEIKDSMCGFRVYPLGPTLKVIKQAKFQPRMGFDSEILVRLKWENLAFINVPTAVIYPEHGILEHHHHHH", "soluble on expression in E. coli": "not soluble"},
      {"sequence": "MAHHHHHHMCLLSFFSLYPLGSFSSGKSNMDTPPISDDDKEVIDRLFASDVPQSLSRHAVLILHYHRTVFGSMVPSNVLLAGCLLYSCKWLSYPSGNSFLKNYFQGMKTSDIVGLEMVLHGTVRQNFMLVEACLRSEMSEIVRLNDVPHNRERIVLVCLNLVRALYRTRWCLLPETAARGALLVACEMCDVHLKSLPESFNTTMVTCAVDYLRSIFAQSRC", "soluble on expression in E. coli": "not soluble"},
      {"sequence": "MFKQFIEDAKSIAERDPAATSVLEVIFLYSGFHAVCLHRIAHWFYKRNMRFIARFISQLNRFLTGVEIHPGAKIGKGLFIDHGMGVVIGETAEVGDNCTIYHNVTLGGTGKDKGKRHPTIGNNVLISTGAKVLGPFKVGDNSRIGANAVVLNEVEPNTTVVGVPGRAVKRGNQKIVPSIELDQIHIPDPVAQELCRIKQRLESLEKELMEMRRASQGSNVQEPVPQEKSCEEECKLEMGKEIADNETL", "soluble on expression in E. coli": "not soluble"},
      {"sequence": "MNGIFIEDKRLGIRLPHLDKPWEDYSPNEQEAILLEWETIRGLIPDRIAELEREINKKQDELGQEADFARSCQLNADIAELASIVNDLWIWYRIVPSVSSRHGKKRVEKP", "soluble on expression in E. coli": "not soluble"},
      {"sequence": "KQLLFMHSSASVESLERPYLETMPGQYAAEITLFEWLDFLLERGGVKRALKAIEYYETVGWVSADAAERLQGHVRGFSGPADDDSHSDLEMSDHVLSLVYIARLSSMQ", "soluble on expression in E. coli": "not soluble"},
      {"sequence": "GPHMTQEEAVVNASLWEYVRLRESYDADTAQYAYDLVSNFSAPMVRQNYQQFFNYPNPTSPQVILGKHGRLEVEHIASNDVTPGVQQIRYKRTLIVDGKMPMASTWTATVRYEKVTSLPGRLRLTNPGGLVVTSYQTSEDTVSNAGHSEP", "soluble on expression in E. coli": "soluble"},
      {"sequence": "DDEEDEGSTIARHFHELWDMANKQDVLELILEQDIQVEEPAIFSKAIINFKADLAKKTLGPRGREVLNRLMPKVFDAVFAHPDAQFGLPRVLHLLHNICTRTTYLELLDEHPAALVQLVRLCTASPMISEQLSRYPILLDELIDPQQLYNPIPLDSYRTELRDFLARIPEDDMEQQMEALRQFKQICILRIAAADIAGVLPVMKVSDHLTYLAEAIVEAVVSQAWLQVSEKYGEPTHVKDREGKGFAVIGYGKVGGWELGYNSDLDIVFMHDCPVNVYTDGKKEIDGRQFYLRLAQRIIHIFSTRTASGILYEVDTRLRPSGASGLLVSPTDAFDDYQHQDAWTWEHQALVRARMIYGDEPLAIAFHNTRHDVLCKPRDEQTLKKEVVEMREKMRDHLGGKKSGRFMIKQDVGGITDIEFLAQYLVLNYSHEKPKLTRWCDNVRIYETLIAQGVMEEDQAMQLIRAYTAMRNEIHHRNLLNLDADVVEDKFVAEREWVKQAWNQWFA", "soluble on expression in E. coli": "soluble"},
      {"sequence": "HQWQADEEAVRSATCSFSVKYLGCVEVFESRGMQVCEEALKVLRQSRRRPVRGLLHVSGDGLRVVDDETKGLIVDQTIEKVSFCAPDRNHERGFSYICRDGTTRRWMCHGFLACKDSGERLSHAVGCAFAVCLER", "soluble on expression in E. coli": "soluble"},
      {"sequence": "MTIDTTNESDNSPTNSPGLEASARTFSLNASKMVRITDDYADEVFIEQNDVVIEKPRMDPLHVRKLMETWRKAARRARTNYIDPWDEFNIHEYPVQRAKRYRYSAIRKQWTEDIVDVRLHPDSFARGAMRECYRLKKCSKHGTSQDWSSNYVAKRYICQVDRRVLFDDVRLQMDAKLWAEEYNRYNPPKKIDIVQMCVIEMIDVKGSPLYHLEHFIEGKYIKYNSNSGFVSNAARLTPQAFSHFTFERSGHQMMVVDIQGVGDLYTDPQIHTVVGTDYGDGNLGTRGMALFFHSHRCNDICETMDLSNFELSPPEIEATEVAMEVAAKQKKSCIVPPTVFEARRNRISSECVHVEHGISMDQLRKRKTLNQSSTDLSAKSHNEDCVCPECIPVVEQLCEPCSEDEEDEEEDYPRSEKSGNSQKSRRSRMSISTRSSGDESASRPRKCGFVDLNSLRQRHDSFRSSVGTYSMNSSRQTRDTEKDEFWKVLRKQSVPANILSLQLQQMAANLENDEDVPQVTGHQFSVLGQIHIDLSRYHELGRFVEVDSEHKEMLEGSENDARVPIKYDKQSAIFHLDIARKCGILEAVLTSAHIVLGLPHELLKEVTVDDLFPNGFGEQENGIRDLEEFGSDLMEIAAEMGDKGAMLYMAHAYETGQHLGPNRRTDYKKSIDWYQRVVGFQEEEELDSDCGKTTFSSFAPLTRHEILAKMAEMYKEGGYGLNQDFERAYGLFNEAAEAAMEAMNGKLANKYYEKAEMCGE", "soluble on expression in E. coli": "not soluble"},
      {"sequence": "MGSLVREWVGFQQFPAATQEKLIEFFGKLKQKYLIVKMIQGAIRNDIKTSGKPL", "soluble on expression in E. coli": "not soluble"},
      {"sequence": "MGSDKIHHHHHHMLYRTNPKNGDKLSILGFGAMRLPTKEDGSIDEEKATKMVRYAIDNGVNLVDTAWPYHMGECEPFLARALSEGYREKVKLSTKLPTWAVNTREDMDKFLNAQLEKLNTKQIDYYLLHTLTKASWAKIKDLGVIDFLNSAKEDGRIKNAGFSYHGMQEDFAPIVDDYNWDFCLIQYNYLDEKVQAGTKGLKYAASKGLGVFVMEPLRGGNLAGKTPEEVMEIWNKADKKRTTVEWALRWVWNHPEVTSVLSGMTEPEQLEENIKIAEEGYPNSLTQKELGLIEQAALKYGELLKINCTGCGYCMPCPANVDIPTCFGIYNNLHMFHDETQRFQYFATLSDIFWTNEPHFASQCTNCGICIEKCPQYIQIPEMLEKVVAEFEGPDNDEKMAMVKSVFKM", "soluble on expression in E. coli": "not soluble"},
      {"sequence": "MVAYSPIIATYGNRAEQFLETDSDFAKYHAKLNKKLQHLRSRCHLVTKDTKKYSSKNKYGEINSEDYDNKTKLIGVLILLHAERDLALAETLKLRARQRGKLKKSEEKVLSTRLKKACKTADKLVNVTQNEQQWITRAQYLAFAKLVHSEYLINGKRFKRKDNAKISNNLALVFAALEHLKNLSLLAEEVVDNIVNKYQYSLKQYAGNLITTPEINNFIVERVQSDENKDDELVKLLLDNGFNMKKITTSTEDQKVTTNINWRSFNAKIIDAEVAQFLEQGLSIHPTQITQYTQRLSKLEKALDRHEFFIANHDDQDDIDEMVENSSENNQIILAYIKYNILLTSISRERDLFTHLWNQWLKLNTSLPSKLTKYKEMERIVKNLTKYLSDIMELPGVYSDDELLSQLDLCKLYFQLFLNTGCLSVLYQSKGRYMEALALYVDAYRRLENKLSEIESLDEILLPANLLSLNSVRSLQKRIENGGNSVITLAEYEKRNHGGSLGKYDLTVIEKLDSKKILPTDIQLKNLFPLKPKMLPIPSKPTLFDLAFNYITYDKQEPSASQVKDSVTETESISQTPISNEQTEGEPKKKRGFLGLFGR", "soluble on expression in E. coli": "not soluble"}
    ]}
  ]
}
